Test results reported in PMC2673036, “Ancient mtDNA Genetic Variants Modulate mtDNA Transcription and Replication”.

T1: TFAM (mitochondrial transcription factor A) (UniProt Q00059 43-246)
T1 sequence: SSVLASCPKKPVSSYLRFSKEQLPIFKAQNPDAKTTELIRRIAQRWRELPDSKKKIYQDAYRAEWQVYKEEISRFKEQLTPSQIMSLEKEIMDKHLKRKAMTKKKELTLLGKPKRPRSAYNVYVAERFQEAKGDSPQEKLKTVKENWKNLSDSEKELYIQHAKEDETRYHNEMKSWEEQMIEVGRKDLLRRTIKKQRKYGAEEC


Legend:
[1] = biological target: T1, TFAM (mitochondrial transcription …); test: EMSA; TFAM:probe 10:1 and 25:1; reference for normalization; 10 mM Tris-HCl pH 7.5, 10 mM KCl, 1 mM DTT, 1 mM EDTA, 6% glycerol; 3 nM probe, 30 or 75 nM TFAM; 30 min, room temperature; 5% native PAGE, 0.5x TBE; conditions: protein: recombinant; (PNK end label); blunt
[2] = biological target: T1, TFAM (mitochondrial transcription …); test: EMSA; TFAM:probe 10:1 and 25:1; increased binding vs wt-295, exact value only in figure; 10 mM Tris-HCl pH 7.5, 10 mM KCl, 1 mM DTT, 1 mM EDTA, 6% glycerol; 3 nM probe, 30 or 75 nM TFAM; 30 min, room temperature; 5% native PAGE, 0.5x TBE; conditions: protein: recombinant; (PNK end label); blunt

Binder | binding signal [1] | binding signal [2]
wt-295 (CRS 276-303) (dsDNA) DNA 1: ACATCATAACAAAAAATTTCCACCAAAC DNA 2: GTTTGGTGGAAATTTTTTGTTATGATGT | 1 relative to wt-295 | 
C295T-VAR (haplogroup J, 276-303) (dsDNA) DNA 1: ACATCATAACAAAAAATTTTCACCAAAC DNA 2: GTTTGGTGAAAATTTTTTGTTATGATGT |  | > 1 relative to wt-295
